In the supplement of paper PMC10567573:
± gives the standard deviation.

Assay: protein stability index of a GFP-peptide fusion (GPS, HEK-293T) (PSI 1-6); higher = more stable
Conditions: c terminus: a fixed tail appended
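Note: 24-mer peptide tiles fused after GFP, lentivirally expressed, FACS-sorted into six equal bins by GFP/DsRed ratio, decoded by Illumina sequencing, PSI is the read-weighted mean bin number.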

Sequence: HGLPFLPGTSFKDSTKTAFHRSQT [EFHC1]
- protein stability index (treatment: DMSO): 3.53 ± 0.15
- protein stability index (treatment: MLN4924 1 uM, 8 h): 3.63 ± 0.087

Sequence: LQRWCRAKHMGLEPPPEVWQVLKT [POLD4]
- protein stability index (treatment: DMSO): 2.28 ± 0.056
- protein stability index (treatment: MLN4924 1 uM, 8 h): 2.56 ± 0.14

Sequence: FSLFGDISVLQQQGSLSNTYLSKV [FBXO33]
- protein stability index (treatment: DMSO): 2.12 ± 0.38
- protein stability index (treatment: MLN4924 1 uM, 8 h): 2.13 ± 0.096

Sequence: LNILIQSLDWETFEQYCAWQLFLA [INTS3]
- protein stability index (treatment: DMSO): 3.04 ± 0.92
- protein stability index (treatment: MLN4924 1 uM, 8 h): 2.62 ± 0.12

Sequence: VKGSRVTVMEKCSDGWWRGSYNGQ [NCK2]
- protein stability index (treatment: DMSO): 2.13 ± 0.47
- protein stability index (treatment: MLN4924 1 uM, 8 h): 2.29 ± 0.34

Sequence: RRSRDPGYDHLWDETLSSSHQKCP [PLEKHN1]
- protein stability index (treatment: DMSO): 3.81 ± 0.32
- protein stability index (treatment: MLN4924 1 uM, 8 h): 4.04 ± 0.13

Sequence: KNLKIWNVHTGEFRNCGACVTLMQ [WDR88]
- protein stability index (treatment: DMSO): 2.42 ± 0.86
- protein stability index (treatment: MLN4924 1 uM, 8 h): 2.35 ± 0.54

Sequence: GVSANASKAWHQKSHFQNSREWSG [PBXIP1]
- protein stability index (treatment: DMSO): 3.22 ± 0.33
- protein stability index (treatment: MLN4924 1 uM, 8 h): 3.23 ± 0.3

Sequence: IEMFKSITHSTVGSKGEKDLGASS [EHMT1]
- protein stability index (treatment: DMSO): 4.23 ± 0.15
- protein stability index (treatment: MLN4924 1 uM, 8 h): 3.85 ± 0.36

Sequence: NKNSTDVKGCSMYVALFPCNECAK [DCTD]
- protein stability index (treatment: DMSO): 2.19 ± 0.37
- protein stability index (treatment: MLN4924 1 uM, 8 h): 2.13 ± 0.14

Sequence: IPAEENASTSTPSSTLVRPIRSRR [FAM189A2]
- protein stability index (treatment: DMSO): 5.29 ± 0.16
- protein stability index (treatment: MLN4924 1 uM, 8 h): 5.33 ± 0.19

Sequence: MYFSSLFPYVVLACFLVRGLLLRG [SLC6A17]
- protein stability index (treatment: DMSO): 2.9 ± 0.65
- protein stability index (treatment: MLN4924 1 uM, 8 h): 2.65 ± 0.72

Sequence: GFVFGTTLIMLLSLAAFSVISVVS [RTN3]
- protein stability index (treatment: DMSO): 3.2 ± 0.33
- protein stability index (treatment: MLN4924 1 uM, 8 h): 2.61 ± 0.58

Sequence: LYIFATCLGLSYDGLLGDNQIMPK [MAGEA3]
- protein stability index (treatment: DMSO): 2.92 ± 0.34
- protein stability index (treatment: MLN4924 1 uM, 8 h): 2.78 ± 0.52

Sequence: GTTMASGGRFRCPSCRHEVVLDRH [TRIM55]
- protein stability index (treatment: DMSO): 2.08 ± 0.41
- protein stability index (treatment: MLN4924 1 uM, 8 h): 2.12 ± 0.22

Sequence: DSDIPEIPPSSDRTPEILKKALSG [CDS1]
- protein stability index (treatment: DMSO): 5.2 ± 0.21
- protein stability index (treatment: MLN4924 1 uM, 8 h): 5.39 ± 0.19

Sequence: LCSPGHERRGTPADTEEPTKDPDV [PSD2]
- protein stability index (treatment: DMSO): 5.66 ± 0.19
- protein stability index (treatment: MLN4924 1 uM, 8 h): 5.43 ± 0.26

Sequence: FFSKRFKSAAMLAVFAVSAVVHEY [SOAT1]
- protein stability index (treatment: DMSO): 2.35 ± 0.9
- protein stability index (treatment: MLN4924 1 uM, 8 h): 3.06 ± 0.41

Sequence: ESGKEEGMKIDLIDGKGRGVIATK [KMT5A]
- protein stability index (treatment: DMSO): 5.12 ± 0.41
- protein stability index (treatment: MLN4924 1 uM, 8 h): 5.39 ± 0.39

Sequence: YISETVLAIDAIHQLGFIHRDIKP [STK38L]
- protein stability index (treatment: DMSO): 2.33 ± 0.74
- protein stability index (treatment: MLN4924 1 uM, 8 h): 2.56 ± 0.24

Sequence: AHTATASAVEGAPPARPRPRSPEC [IRX6]
- protein stability index (treatment: DMSO): 5.37 ± 0.13
- protein stability index (treatment: MLN4924 1 uM, 8 h): 5.19 ± 0.28

Sequence: TFQNSVFVATFLRYAVVLNATWLV [SCD]
- protein stability index (treatment: DMSO): 3.01 ± 0.34
- protein stability index (treatment: MLN4924 1 uM, 8 h): 3.43 ± 0.43

Sequence: DIDQMFSTLLGEMDLLTQSLGVDT [APBB1IP]
- protein stability index (treatment: DMSO): 3.16 ± 0.5
- protein stability index (treatment: MLN4924 1 uM, 8 h): 2.76 ± 0.41

Sequence: FVQILLALHHVHTHLILHRDLKTQ [NEK8]
- protein stability index (treatment: DMSO): 2.98 ± 0.064
- protein stability index (treatment: MLN4924 1 uM, 8 h): 3.01 ± 0.2

Sequence: WIIKKHNTNSDPLDPSFPVEFVRH [POMT2]
- protein stability index (treatment: DMSO): 2.54 ± 0.29
- protein stability index (treatment: MLN4924 1 uM, 8 h): 2.39 ± 0.51

Sequence: KVLEEGGFFEEKGAIFCPPCYDVR [PDLIM7]
- protein stability index (treatment: DMSO): 2.96 ± 0.29
- protein stability index (treatment: MLN4924 1 uM, 8 h): 2.92 ± 0.36

Sequence: VVGDNAVGKTRLICARACNTTLTQ [RHOBTB1]
- protein stability index (treatment: DMSO): 2.69 ± 0.32
- protein stability index (treatment: MLN4924 1 uM, 8 h): 2.73 ± 0.38

Sequence: LLPIVPLSWLVWLLLLLLASLLPS [ADAMTS4]
- protein stability index (treatment: DMSO): 3.04 ± 0.33
- protein stability index (treatment: MLN4924 1 uM, 8 h): 3.17 ± 0.51

Sequence: RYLVGEHQADLEVANRHGHTCLMI [FEM1A]
- protein stability index (treatment: DMSO): 2.19 ± 0.42
- protein stability index (treatment: MLN4924 1 uM, 8 h): 2.38 ± 0.24

Sequence: VLPPIHAYGNRTECRNPQELESIR [FEM1B]
- protein stability index (treatment: DMSO): 4.14 ± 0.28
- protein stability index (treatment: MLN4924 1 uM, 8 h): 4 ± 0.21

Sequence: HDELLAEHIKSLLIKNNSLPRKRQ [INTS3]
- protein stability index (treatment: DMSO): 5 ± 0.17
- protein stability index (treatment: MLN4924 1 uM, 8 h): 4.98 ± 0.2

Sequence: ENPVGTFHCSMSPGNLEKNRYGDV [PTPN9]
- protein stability index (treatment: DMSO): 3.44 ± 0.35
- protein stability index (treatment: MLN4924 1 uM, 8 h): 3.4 ± 0.38
